Consider 4 molecules from article PMC3891831.

Series [1] deals with T1, GST-MEIOB construct A (Mus musculus, UniProt Q9D513 136-307).
T1 sequence: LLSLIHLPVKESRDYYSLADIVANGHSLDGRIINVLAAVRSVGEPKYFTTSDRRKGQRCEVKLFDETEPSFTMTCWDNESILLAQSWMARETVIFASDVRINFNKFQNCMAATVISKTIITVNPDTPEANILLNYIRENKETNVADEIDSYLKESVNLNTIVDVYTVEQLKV
The series can be described thus: EMSA. In general terms: A gel shift assay detects complexes by their altered migration in electrophoresis.

The target in series [2] is T1, GST-MEIOB construct A. The series can be described thus: EMSA. This is another data set of the same source.

By Kd is commonly meant a measure of binding affinity in units of concentration. High values mean weaker binding, low ones tighter binding. In the series with GST-MEIOB construct A [1], GTGTGTGTGTGTGTGTGTGTGTGTGTGTGTGTGTGT (ssDNA) [d36GT] showed a Kd of 400 nM.

B1: dsDNA 36 bp (dsDNA)
DNA 1: GTGTGTGTGTGTGTGTGTGTGTGTGTGTGTGTGTGT
DNA 2: ACACACACACACACACACACACACACACACACACAC
Regarding B1, the binding result with GST-MEIOB construct A [2] is “no binding”.

B2: 5' flap (30 nt) (dsDNA)
DNA 1: GTGTGTGTGTGTGTGTGTGTGTGTGTGTGTGGACATCTTTGCCCACCTGCAGGTTCACCC
DNA 2: GGGTGAACCTGCAGGTGGGCAAAGATGTCC
With B2, the binding result in the series with GST-MEIOB construct A [2] is given as “binds”.

B3: 3' flap (30 nt) (dsDNA)
DNA 1: CGATAGTCGGATCCTCTAGACAGCTCCATGGTGTGTGTGTGTGTGTGTGTGTGTGTGTGT
DNA 2: CATGGAGCTGTCTAGAGGATCCGACTATCG
Turning to B3, the binding result with GST-MEIOB construct A [2] was “binds”.
